Among the data in article PMC5902328 are Km values, retold here.

Substrate in the data set: N
Briefly: purified protein. Conditions: aminating direction, co-substrate Fru6P, saturating, no GlcNAc6P activator, 37 °C.

B1: Amuc-NagB (Akkermansia muciniphila ATCC BAA-835) (protein)
chain: MIGVESSRVMRAAPRKAVGRVEASVPWDFSRKYAAVHHSGTISVENARKRSKIGRVMKVETFETPQDAAKALAGEVAELIRTRAAEGKNVVLGLATGATPLPFYAELVRMHKEEGLSFANVISFNLDEYSGLDRDHPESYWYFMHTNLFNHIDIKPENINLPSGTVKDDEIAAHCAAYEQKIKDCGGIDLQILGIGRTGHIGFNEPGSDDTTVTRQVHLDELTRSDAAPAFGGIENVPTTAITMGVATIMGAREVALMAWGEKKASIVKKAVQGPVTVDVAASYLQKHPNAKFLLDKGAASLL
As a reminder, the Km is the substrate concentration at which the rate is half of its maximum. Turning to B1, the Km was 41.3 ± 12.8 mM.
